Results from patent US20250320312A1 (OXITOPE PHARMA B V, published 2025).

T1: Peptide 8: Biotin-AEAAAKEAAAKEAAAKEAAAKAAA-Tyr-acid (N-terminal biotin; C-terminal acid)
T1 construct: Control peptide without PC
T1 peptide: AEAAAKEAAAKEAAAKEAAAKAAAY

T2: Peptide 4: Biotin-AGGGGSGGGGSGGGGSAAA-Tyr-acid (N-terminal biotin; C-terminal acid)
T2 construct: Control peptide without PC
T2 peptide: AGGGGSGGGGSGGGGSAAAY


Key:
Test in all cases: scFv ELISA
[1] = target: Peptide 5: Biotin-…-[Tyr(PC)]-acid
[2] = target: Peptide 1: Biotin-…-[Tyr(PC)]-acid
[3] = target: BSA (UniProt P02769)
Chain of BSA (P02769 25-607 limits assumed): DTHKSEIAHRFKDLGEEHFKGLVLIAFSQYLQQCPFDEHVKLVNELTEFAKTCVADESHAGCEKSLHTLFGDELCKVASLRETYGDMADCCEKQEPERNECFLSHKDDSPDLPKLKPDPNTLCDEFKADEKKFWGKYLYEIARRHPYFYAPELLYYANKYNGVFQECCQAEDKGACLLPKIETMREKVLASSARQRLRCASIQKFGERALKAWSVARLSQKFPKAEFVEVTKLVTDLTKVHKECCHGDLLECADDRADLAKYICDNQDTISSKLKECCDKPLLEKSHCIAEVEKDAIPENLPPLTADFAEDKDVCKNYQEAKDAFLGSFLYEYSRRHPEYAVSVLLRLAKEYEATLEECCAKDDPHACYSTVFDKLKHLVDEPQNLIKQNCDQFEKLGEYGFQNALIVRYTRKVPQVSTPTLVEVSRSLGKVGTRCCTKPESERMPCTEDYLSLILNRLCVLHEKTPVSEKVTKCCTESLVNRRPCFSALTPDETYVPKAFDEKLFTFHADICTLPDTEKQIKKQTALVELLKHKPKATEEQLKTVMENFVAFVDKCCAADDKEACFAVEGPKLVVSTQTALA

[4] = target: T1, Peptide 8: …
In short: (§1)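 Bound scFv was read as OD450 after HRP–anti-V5 detection, TMB development and HCl stop. PPE with BSA was incubated 1 h at RT on BSA-blocked wells coated overnight at 4° C. with peptide, or on streptavidin wells loaded 1 h with biotinylated PC-peptides at 1 μg/mL.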

[5] = target: T2, Peptide 4: …
In short: as §1

OD450 [1] [OD450]	OD450 [2] [OD450]	OD450 [3] [OD450]	OD450 [4] [OD450]	OD450 [5] [OD450]	Binder
0.58	0.25	0.07	0.04	0.04	PcOxP_DB02_H09 (scFv, V domains shown, scFv in periplasmic extract) VH: EVQLLESGGGLVQPGGSLRLSCAASGFTFSSYYMEWVRQAPGKGLEWVAASRNKANDYTYEYADSVKGRFTISRDNSKNTLYLQMNSLRAEDTAVYYCARDYYESSYWYFDVWGQGTLVTVSS VL: DIVMTQSPDSLAVSLGERATINCTASESLYSSKHKVHYLAWYQQKPGQPPKLLIYGASNRYIGVPDRFSGSGSGTDFTLTISSLQAEDVAVYYCAQFYSYPLTFGGGTKVEIK
1.01	0.94	0.06	0.04	0.04	PcOxP_DB03_A07 (scFv, V domains shown, scFv in periplasmic extract) VH: EVQLLESGGGLVQPGGSLRLSCAASGFHFSDFYMEWVRQAPGKGLEWVAASRNKANDYTTEYADSVKGRFTISRDNSKNTLYLQMNSLRAEDTAVYYCARDYYGSSYWYFDVWGQGTLVTVSS VL: DIVMTQSPDSLAVSLGERATINCTASENLYSSKHKVHYLAWYQQKPGQPPKLLIYGASNRYSGVPDRFSGSGSGTDFTLTISSLQAEDVAVYYCAQFYSYPLTFGGGTKVEIK
0.89	1.09	0.08	0.05	0.05	PcOxP_DB03_B09 (scFv, V domains shown, scFv in periplasmic extract) VH: EVQLLESGGGLVQPGGSLRLSCAASGFTFSSYYMEWVRQAPGKGLEWVAASRNKANDYTTEYADSVKGRFTISRDNSKNTLYLQMNSLRAEDTAVYYCARDYYGSSYWYFDVWGQGTLVTVSS VL: DIVMTQSPDSLAVSLGERATINCTASESLYSSKHKVHYLAWYQQKPGQPPKLLIYGAANRYIGVPDRFSGSGSGTDFTLTISSLQAEDVAVYYCAQFYSYPLTFGGGTKVEIK
0.54	0.6	0.06	0.04	0.04	PcOxP_DB03_A10 (scFv, V domains shown, scFv in periplasmic extract) VH: EVQLLESGGGLVQPGGSLRLSCAASGWTFSDFYMEWVRQAPGKGLEWVAASRNKANDYTTEYADSVKGRFTISRDNSKNTLYLQMNSLRAEDTAVYYCARDYYGSSYWYFDVWGQGTLVTVSS VL: DIVMTQSPDSLAVSLGERATINCTASESLYSSKHKVHYLAWYQQKPGQPPKLLIYGASQRYIGVPDRFSGSGSGTDFTLTISSLQAEDVAVYYCAQFYLYPLTFGGGTKVEIK
0.81	0.66	0.12	0.05	0.06	PcOxP_DB03_B07 (scFv, V domains shown, scFv in periplasmic extract) VH: EVQLLESGGGLVQPGGSLRLSCAASGFGFSDFYMEWVRQAPGKGLEWVAASRNKANDYTTEYADSVKGRFTISRDNSKNTLYLQMNSLRAEDTAVYYCARDYYSSSYWYFDVWGQGTLVTVSS VL: DIVMTQSPDSLAVSLGERATINCTASESLYSSKHKVHYLAWYQQKPGQPPKLLIYGASNRYIGVPDRFSGSGSGTDFTLTISSLQAEDVAVYYCAQFYSYPLTFGGGTKVEIK
1.67	2.28	0.07	0.05	0.06	PcOxP_DB03_A12 (scFv, V domains shown, scFv in periplasmic extract) VH: EVQLLESGGGLVQPGGSLRLSCAASGFTFSDGYMEWVRQAPGKGLEWVAASRNKANDYTTAYADSVKGRFTISRDNSKNTLYLQMNSLRAEDTAVYYCARDYYGSSYWYFDVWGQGTLVTVSS VL: DIVMTQSPDSLAVSLGERATINCTASESLYSSKHKVHYLAWYQQKPGQPPKLLIYGASNRYIGVPDRFSGSGSGTDFTLTISSLQAEDVAVYYCGQFYSYPLTFGGGTKVEIK
0.47	0.19	0.06	0.04	0.04	PcOxP_DB03_A04 (scFv, V domains shown, scFv in periplasmic extract) VH: EVQLLESGGGLVQPGGSLRLSCAASGDTFSDFYMEWVRQAPGKGLEWVAASRNKANDYSTEYADSVKGRFTISRDNSKNTLYLQMNSLRAEDTAVYYCARDYYGSSYWYFDVWGQGTLVTVSS VL: DIVMTQSPDSLAVSLGERATINCEASESLYSSKHKVHYLAWYQQKPGQPPKLLIYGASNRYIGVPDRFSGSGSGTDFTLTISSLQAEDVAVYYCAQFYSYPLTFGGGTKVEIK
1.07	0.99	0.08	0.05	0.05	PcOxP_DB03_A06 (scFv, V domains shown, scFv in periplasmic extract) VH: EVQLLESGGGLVQPGGSLRLSCAASGFTFSSYYMEWVRQAPGKGLEWVAASRSKANDYTTEYADSVKGRFTISRDNSKNTLYLQMNSLRAEDTAVYYCARDYYGSQYWYFDVWGQGTLVTVSS VL: DIVMTQSPDSLAVSLGERATINCTASESLYSNKHKVHYLAWYQQKPGQPPKLLIYGASNRYIGVPDRFSGSGSGTDFTLTISSLQAEDVAVYYCAQFYSYPLTFGGGTKVEIK
0.64	0.21	0.06	0.04	0.04	PcOxP_DB03_B01 (scFv, V domains shown, scFv in periplasmic extract) VH: EVQLLESGGGLVQPGGSLRLSCAASGFTFSSYYMEWVRQAPGKGLEWVAASRNTANDYTTEYADSVKGRFTISRDNSKNTLYLQMNSLRAEDTAVYYCARDYYGSSYWYFDVWGQGTLVTVSS VL: DIVMTQSPDSLAVSLGERATINCTASESLYSSKHKVHYLAWYQQKPGQPPKLLIYGASNREIGVPDRFSGSGSGTDFTLTISSLQAEDVAVYYCAQFYSYPLTFGGGTKVEIK
0.78	0.93	0.06	0.04	0.04	PcOxP_DB03_A05 (scFv, V domains shown, scFv in periplasmic extract) VH: EVQLLESGGGLVQPGGSLRLSCAASGFTFSEFYMEWVRQAPGKGLEWVAASRNKANDYTTEYADSVKGRFTISRDNSKNTLYLQMNSLRAEDTAVYYCARDYYGSSYWYFDVWGQGTLVTVSS VL: DIVMTQSPDSLAVSLGERATINCTASESLYSSKHKVHYLAWYQQKPGQPPKLLIYGASNRAIGVPDRFSGSGSGTDFTLTISSLQAEDVAVYYCAQFYFYPLTFGGGTKVEIK
1.01	0.68	0.06	0.05	0.04	PcOxP_DB03_B06 (scFv, V domains shown, scFv in periplasmic extract) VH: EVQLLESGGGLVQPGGSLRLSCAASGITFSDFYMEWVRQAPGKGLEWVAASRNKYNDYTTEYADSVKGRFTISRDNSKNTLYLQMNSLRAEDTAVYYCARDYYGSSYWYFDVWGQGTLVTVSS VL: DIVMTQSPDSLAVSLGERATINCTASESLYSSKHKVHYLAWYQQKPGQPPKLLIYGASNRYTGVPDRFSGSGSGTDFTLTISSLQAEDVAVYYCAQFYSYPLTFGGGTKVEIK
1.95	2.63	0.07	0.04	0.05	PcOxP_DB03_B08 (scFv, V domains shown, scFv in periplasmic extract) VH: EVQLLESGGGLVQPGGSLRLSCAASGFTFSDYYMEWVRQAPGKGLEWVAASRNKANDYTTEYADSVKGRFTISRDNSKNTLYLQMNSLRAEDTAVYYCARDYYGSSYWYFDVWGQGTLVTVSS VL: DIVMTQSPDSLAVSLGERATINCTASESLYSSKHKVHYLAWYQQKPGQPPKLLIYGASNRYIGVPDRFSGSGSGTDFTLTISSLQAEDVAVYYCANFYSYPLTFGGGTKVEIK
1.1	1.12	0.07	0.04	0.04	PcOxP_DB03_B03 (scFv, V domains shown, scFv in periplasmic extract) VH: EVQLLESGGGLVQPGGSLRLSCAASGFTFSDGYMEWVRQAPGKGLEWVAASRNKANDYTTEYADSVKGRFTISRDNSKNTLYLQMNSLRAEDTAVYYCARDYYGSSYWYFDVWGQGTLVTVSS VL: DIVMTQSPDSLAVSLGERATINCTASESLYSSKHKVHYLAWYQQKPGQPPKLLIYGASNRYIGVPDRFSGSGSGTDFTLTISSLQAEDVAVYYCAQFYVYPLTFGGGTKVEIK
